The values below come from US20030186223A1, “Modular recombinatorial display libraries” (Dyax Corp., priority 2002, published 2003).

To fix the notation:
B1: SEQ ID NO 10 phage isolate (peptide, not shown: large carriers; small tags and cut ends)
peptide: RLDCDMVFSGPHGKICVNY
modifications: disulfide 4-16 (inferred); also: displayed on M13 phage fused to protein III via linkers
B2: SEQ ID NO 12 phage isolate (peptide, not shown: large carriers; small tags and cut ends)
peptide: AHQCHHWTSGPYGEVCFNY
modifications: disulfide 4-16 (inferred); also: displayed on M13 phage fused to protein III via linkers
B3: SEQ ID NO 44 phage isolate (peptide, not shown: large carriers; small tags and cut ends)
peptide: RTTCHHQISGPFGPVCVNY
modifications: disulfide 4-16 (inferred); also: displayed on M13 phage fused to protein III via linkers
B4: SEQ ID NO 43 phage isolate (peptide, not shown: large carriers; small tags and cut ends)
peptide: SNKCDHYQSGPFGDICVSY
modifications: disulfide 4-16 (inferred); also: displayed on M13 phage fused to protein III via linkers
B5: SEQ ID NO 42 phage isolate (peptide, not shown: large carriers; small tags and cut ends)
peptide: SNKCDHYQSGPFGDVCVSY
modifications: disulfide 4-16 (inferred); also: displayed on M13 phage fused to protein III via linkers
B6: SEQ ID NO 45 phage isolate (peptide, not shown: large carriers; small tags and cut ends)
peptide: RTTCHHQISGPYGDICVKY
modifications: disulfide 4-16 (inferred); also: displayed on M13 phage fused to protein III via linkers

Positions of bridges follow the written chain, without caps; N, C: chain ends. No end group written: not given here.

The first assay deals with T1, KDR-Fc fusion protein (Homo sapiens, UniProt P35968).
T1 construct: purchased R & D Systems (Minneapolis, Minn.) 357-KD-050
T1 sequence (P35968 with tags, fused parts or gaps limits assumed): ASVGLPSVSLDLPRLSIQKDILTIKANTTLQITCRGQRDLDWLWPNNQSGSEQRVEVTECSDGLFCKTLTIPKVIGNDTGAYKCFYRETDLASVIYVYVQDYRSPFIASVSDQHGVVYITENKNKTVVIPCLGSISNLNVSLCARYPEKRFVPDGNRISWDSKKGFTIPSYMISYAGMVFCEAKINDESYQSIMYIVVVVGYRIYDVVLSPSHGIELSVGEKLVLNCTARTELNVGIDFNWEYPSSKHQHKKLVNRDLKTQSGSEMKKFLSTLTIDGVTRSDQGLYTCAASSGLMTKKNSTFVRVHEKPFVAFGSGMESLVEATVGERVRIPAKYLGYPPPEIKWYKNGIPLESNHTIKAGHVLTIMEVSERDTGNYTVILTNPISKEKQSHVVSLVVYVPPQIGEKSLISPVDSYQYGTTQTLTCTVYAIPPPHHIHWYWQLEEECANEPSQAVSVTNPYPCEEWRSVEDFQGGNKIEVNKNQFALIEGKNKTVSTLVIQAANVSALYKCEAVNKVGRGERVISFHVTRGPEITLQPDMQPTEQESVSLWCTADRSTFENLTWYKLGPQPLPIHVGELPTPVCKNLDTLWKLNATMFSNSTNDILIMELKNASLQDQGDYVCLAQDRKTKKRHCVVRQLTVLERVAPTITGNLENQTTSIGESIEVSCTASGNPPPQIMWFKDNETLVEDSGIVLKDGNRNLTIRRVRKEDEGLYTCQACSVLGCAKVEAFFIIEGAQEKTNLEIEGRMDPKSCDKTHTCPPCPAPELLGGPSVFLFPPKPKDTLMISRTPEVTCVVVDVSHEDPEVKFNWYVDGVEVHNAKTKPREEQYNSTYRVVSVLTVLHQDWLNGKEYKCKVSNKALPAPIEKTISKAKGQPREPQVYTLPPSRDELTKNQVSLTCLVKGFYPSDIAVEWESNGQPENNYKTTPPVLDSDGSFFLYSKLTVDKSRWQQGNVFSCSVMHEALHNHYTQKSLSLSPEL
As to the kind of experiment: BIAcore surface plasmon resonance binding of synthetic polypeptides to immobilized KDR-Fc. Particulars: BIAcore SPR; KDR-Fc fusion immobilized on chip; synthetic polypeptide with acetyl-Ser-Gly- and -Gly-Ser flanks. The protocol:
Binding affinity of selected peptides from the various rounds of selection was tested using a BIAcore surface plasmon resonance spectrophotometer. Polypeptides selected from Tables 1, 2, and 3 were synthesized by solid phase synthesis using the sequence as shown in the tables above and an N-terminal flanking peptide, acetyl-Ser-Gly-, and a C-terminal flanking peptide, -Gly-Ser. A KDR-Fc fusion protein target was immobilized on a BIAcore chip, and the synthetic polypeptides were flowed over the chip to measure the KD of the polypeptides with respect to the KDR target.
A general note: Surface plasmon resonance follows binding to a sensor surface in real time, without labels.
As to “SNKCDHYQSGPHGKICVNY (Selected library sequence) [SEQ ID NO: 23]”, the “binding to KDR target (qualitative)” value is “no binding”.

Consider “SNKCDHYQSGPYGAVCLHY (Selected library sequence) [SEQ ID NO: 7]”, for which the “binding to KDR target (qualitative)” value was “no binding”.

As to “WQECTKVLSGPGQFECEYM (Selected library sequence) [SEQ ID NO: 24]”, the “binding to KDR target (qualitative)” value is “no binding”.

For “WQECTKVLSGPGQFLCSYG (Selected library sequence) [SEQ ID NO: 6]”, the “binding to KDR target (qualitative)” value is on record as “no binding”.

Another assay deals with T2, KDR-Fc fusion (chimeric fusion of Ig Fc region with human KDR, R & D Systems #357-KD-050) (human, UniProt P35968 20-764).
T2 construct: Bought carrier-free from R & D Systems; also called KDR-Fc fusion protein target; KDR target; not shown: Ig Fc region
T2 sequence (P35968 20-764, change not shown): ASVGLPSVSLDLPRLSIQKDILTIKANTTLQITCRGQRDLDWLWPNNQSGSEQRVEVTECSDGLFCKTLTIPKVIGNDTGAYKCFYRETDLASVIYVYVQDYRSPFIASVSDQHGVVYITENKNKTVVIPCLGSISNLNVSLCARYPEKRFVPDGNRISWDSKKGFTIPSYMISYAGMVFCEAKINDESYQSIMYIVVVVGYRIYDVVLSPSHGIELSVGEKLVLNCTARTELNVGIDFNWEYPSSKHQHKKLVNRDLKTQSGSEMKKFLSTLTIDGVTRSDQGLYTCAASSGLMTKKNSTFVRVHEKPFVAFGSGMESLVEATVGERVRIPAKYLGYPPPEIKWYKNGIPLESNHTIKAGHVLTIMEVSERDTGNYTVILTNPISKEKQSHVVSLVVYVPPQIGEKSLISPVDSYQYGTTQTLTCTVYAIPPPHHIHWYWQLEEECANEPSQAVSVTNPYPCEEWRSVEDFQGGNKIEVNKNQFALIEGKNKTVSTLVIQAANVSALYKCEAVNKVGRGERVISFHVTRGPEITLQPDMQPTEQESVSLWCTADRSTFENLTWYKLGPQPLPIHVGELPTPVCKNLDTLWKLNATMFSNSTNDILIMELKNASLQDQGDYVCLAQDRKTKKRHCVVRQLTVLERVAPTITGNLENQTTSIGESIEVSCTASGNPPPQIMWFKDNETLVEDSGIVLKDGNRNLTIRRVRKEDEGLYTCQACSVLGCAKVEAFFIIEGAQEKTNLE
Description: BIAcore SPR, KDR-Fc immobilized on chip, synthetic peptide flowed over.
Details: not given
One may read the Kd as the concentration at which binding is half-saturated. Read a low Kd as a tighter complex. As for Ac-SGRLDCDKVFSGPYGKVCVSYGS (cysteine pairing not given here) [SEQ ID NO 49 synthetic polypeptide], binding was characterised by a dissociation constant (Kd) of 1000 nM.

As to Ac-SGRTTCHHQISGPHGKICVNYGS (cysteine pairing not given here) [SEQ ID NO 22 synthetic polypeptide], the Kd is 650 nM.

The target in another assay is T2, KDR-Fc fusion (chimeric fusion of Ig Fc …). As to the kind of experiment: phage display selection on KDR-Fc beads and phage ELISA screen on KDR-Fc.
Details: not given
As to the method:
The phage library was incubated with 50 μl of Trail R4 Fc fusion beads on a Labquake shaker for 1 hour at room temperature (RT). After incubation, the phage supernatant was removed and incubated with another 50 μl of Trail R4 beads. This was repeated for a total of 5 rounds of depletion, to remove non-specific Fc fusion and bead binding phage from the library. The depleted library was added to 100 μl of KDR-Fc beads and allowed to incubate on a LabQuake shaker for 1 hour at RT. Beads were then washed as rapidly as possible with 5×1 ml PBSTH using a magnetic stand (Promega) to separate the beads from the wash buffer. Phage still bound to beads after the washing were competition-eluted using soluble VEGF₁₆₅ (#100-20) purchased in carrier-free form from Peprotech (Rocky Hill, N.J.) as follows: The beads were incubated with 250 μl of VEGF (50 μg/ml,˜1 μM) overnight at room temperature (RT) on a LabQuake shaker. […]
Once the plates were prepared, each overnight phage culture was diluted 1:1 (or to 10¹⁰ pfu if using purified phage stock) with PBS, 0.05% Tween-20, 1% BSA. […] Each plate was washed 7 times with PBST (PBS, 0.05% Tween-20), then the plates were developed with HRP substrate (˜10 minutes) and the absorbance signal (630 nm) detected with a plate reader.
Background: An ELISA detects its analyte on a solid surface through an enzyme-linked reagent.
With B1, the binding result is “binds”.

Consider B2, for which the binding result was “binds”.

For the next assay the target is unchanged. As to the kind of experiment: secondary library, round 1: phage display selection against KDR-Fc as before.
Details: not given
Take B3: the binding result was “binds”.

Turning to B4, the binding result is on record as “binds”.

For B5, the binding result is “binds”.

For B6, the binding result is given as “binds”.
